Source: article PMC10959120

Legend:
RAB-GDI1 = RAB-GDI1 (UniProt P31150); assay: GFP-Trap co-IP, immunoblot; settings: reference: wild type; sites T86
[1] = target: MADD (DENN/MADD, RAB3-GEP) (UniProt Q8WXG6); assay: GFP-Trap co-IP, HA immunoblot; settings: reference: wild type; sites T86

RAB3A (from UniProt P20336) T86A
binding against the reference (RAB-GDI1): stronger
binding against the reference [1]: stronger
